Data taken from the supplement of paper PMC7877785.
± gives the uncertainty stated by the source.

Experiment: self-splicing fitness, log relative to wild type (ln ratio); higher = more splicing; Tetrahymena group I intron in knt gene, E. coli kanamycin selection, DiMSum; sequences stand for … in CUCUCU…GGAGGGAAAAGUUAUCAGGCAUGCACCUGGUAGCUAGUCUUUAAACCAAUAGAUUGCAUCGGUUUAAAAGGCAAGACCGUCAAAUUGCGGGAAAGGGGUCAACAGCCGUUCAGUACCAAGUCUCAGGGGAAACUUUGAGAUGGCCUUGCAAAGGGUAUGGUAAUAAGCUGACGGACAUGGUCCUAACCACGCAGCCAAGUCCUAAGUCAACAGAUCUUCUGUUGAUAUGGAUGCAGUUCACAGACUAAAUGUCGGUCGGGGAAGAUGUAUUCUUCUCAUAAGAUAUAGUCGGACCUCUCCUUAAUGGGAGCUAGCGGAUGAAGUGAUGCAACACUGGAGCCGCUGGGAACUAAUUUGUAUGCGAAAGUAUAUUGAUUAGUUUUGGAGUACUCGUGGUCG
Method in brief: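 Colonies from six replicate transformations of E. coli BL21(DE3) were pooled and amplicon-sequenced on an Illumina HiSeq 2500. The library placed an intron with all eight P1ex-region nucleotides randomised inside the knt kanamycin-resistance gene on pET-22b(+), and cells grew overnight at 37°C or 30°C on LB agar with or without 25 μg/mL kanamycin (plus 100 μg/mL carbenicillin, 50 μM IPTG, 0.2% rhamnose). Fitness is the DiMSum error-weighted combination of wild-type-normalised replicate fold changes, kanamycin versus none.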

Sequence | self-splicing fitness (ln) (30 °C) | self-splicing fitness (ln) (37 °C)
UCCAAGCAAUAUUACGAUUC | -2.6 ± 0.37 | -2.18 ± 0.34
UCCAAGCAAUAUUACGCACA | -0.502 ± 0.092 | -0.309 ± 0.099
UCCAAGCAAUAUUACGCGUG | -4.16 ± 0.21 | -2.53 ± 0.2
UCCAAGCAAUAUUACGCUAA | -2.62 ± 0.14 | -1.36 ± 0.13
UCCAAGCAAUAUUACGCUAU | -3.98 ± 0.47 | -2.26 ± 0.23
UCCAAGCAAUAUUACGGAAA | -2.19 ± 0.2 | -1.51 ± 0.23
UCCAAGCAAUAUUACGGAUC | -3.49 ± 0.15 | -2.9 ± 0.16
UCCAAGCAAUAUUACGGGAC | -3.59 ± 0.25 | -1.24 ± 0.21
UCCAAGCAAUAUUACGGGUC | -3.16 ± 0.13 | -2.17 ± 0.14
UCCAAGCAAUAUUACGGUAU | -2.72 ± 0.14 | -2.02 ± 0.12
UCCAAGCAAUAUUACGGUGC | -3.58 ± 0.14 | -2.44 ± 0.12
UCCAAGCAAUAUUACGGUGG | -2.08 ± 0.079 | -0.995 ± 0.096
UCCAAGCAAUAUUACGUAGA | -0.92 ± 0.06 | 0.437 ± 0.092
UCCAAGCAAUAUUACGUAUG | -4.08 ± 0.19 | -2.36 ± 0.2
UCCAAGCAAUAUUACGUCAA | -2.68 ± 0.19 | -0.871 ± 0.1
UCCAAGCAAUAUUACGUUGA | -0.725 ± 0.061 | -0.109 ± 0.073
UCCCAGCAAUAUUACGAAAU | -3.28 ± 0.16 | -1.76 ± 0.2
UCCCAGCAAUAUUACGAAGU | -2.04 ± 0.1 | -1.14 ± 0.11
UCCCAGCAAUAUUACGACGA | -0.00629 ± 0.056 | 0.0828 ± 0.065
UCCCAGCAAUAUUACGAGAA | -1.87 ± 0.18 | -0.452 ± 0.13
UCCCAGCAAUAUUACGAGCG | -3.32 ± 0.33 | -2.02 ± 0.26
UCCCAGCAAUAUUACGAGGU | -1.76 ± 0.071 | -0.885 ± 0.073
UCCCAGCAAUAUUACGCAAU | -2.69 ± 0.11 | -2.16 ± 0.13
UCCCAGCAAUAUUACGCAGC | -3.71 ± 0.29 | -3.19 ± 0.47
UCCCAGCAAUAUUACGCAGU | -1.21 ± 0.075 | -0.7 ± 0.1

Sequence | self-splicing fitness (ln) (30 °C) | self-splicing fitness (ln) (37 °C)
UCCCAGCAAUAUUACGCAUC | -4.39 ± 0.42 | -1.85 ± 0.22
UCCCAGCAAUAUUACGCCAG | -2.08 ± 0.23 | -2.27 ± 0.49
UCCCAGCAAUAUUACGCCGA | -0.426 ± 0.1 | 0.659 ± 0.13
UCCCAGCAAUAUUACGCGGU | -3.01 ± 0.13 | -0.898 ± 0.087
UCCCAGCAAUAUUACGCGUC | -3.15 ± 0.19 | -1.47 ± 0.18
UCCCAGCAAUAUUACGCUCU | -2.77 ± 0.16 | -1.7 ± 0.17
UCCCAGCAAUAUUACGCUUA | -2.26 ± 0.14 | -0.458 ± 0.11
UCCCAGCAAUAUUACGGAGC | -1.44 ± 0.098 | -1.44 ± 0.18
UCCCAGCAAUAUUACGGUGU | -0.353 ± 0.043 | 0.504 ± 0.055
UCCCAGCAAUAUUACGGUUA | -0.244 ± 0.071 | 0.0867 ± 0.077
UCCCAGCAAUAUUACGUAAU | -2.01 ± 0.068 | -0.749 ± 0.085
UCCCAGCAAUAUUACGUACG | -3.27 ± 0.2 | -2.93 ± 0.3
UCCCAGCAAUAUUACGUAUG | -3.3 ± 0.16 | -2.2 ± 0.16
UCCCAGCAAUAUUACGUCCA | -1.51 ± 0.12 | -0.587 ± 0.12
UCCCAGCAAUAUUACGUGUC | -2.9 ± 0.15 | -2.44 ± 0.16
UCCCAGCAAUAUUACGUGUU | -3.33 ± 0.12 | -2.19 ± 0.11
UCCCAGCAAUAUUACGUUGA | -1.26 ± 0.066 | 0.408 ± 0.075
UCCGAGCAAUAUUACGAAAA | – | -1.07 ± 0.37
UCCGAGCAAUAUUACGAACA | -3.11 ± 0.47 | –
UCCGAGCAAUAUUACGAAGG | -2.07 ± 0.11 | -1.43 ± 0.13
UCCGAGCAAUAUUACGACGC | – | -1.61 ± 0.42
UCCGAGCAAUAUUACGACGU | -1.05 ± 0.07 | 0.0752 ± 0.11
UCCGAGCAAUAUUACGAGAG | -2.57 ± 0.16 | -2.91 ± 0.21
UCCGAGCAAUAUUACGAGUG | -2.41 ± 0.09 | -1.34 ± 0.094
UCCGAGCAAUAUUACGAUCG | -3.27 ± 0.27 | -2.51 ± 0.34

Sequence | self-splicing fitness (ln) (30 °C) | self-splicing fitness (ln) (37 °C)
UCCGAGCAAUAUUACGAUGU | -3 ± 0.22 | -1.87 ± 0.17
UCCGAGCAAUAUUACGCACU | -2.93 ± 0.25 | -1.99 ± 0.22
UCCGAGCAAUAUUACGCCAG | -3.95 ± 0.28 | -2.24 ± 0.31
UCCGAGCAAUAUUACGCUAC | -2.97 ± 0.38 | –
UCCGAGCAAUAUUACGCUAU | -2.09 ± 0.24 | -3.2 ± 0.33
UCCGAGCAAUAUUACGCUCC | -1.58 ± 0.41 | –
UCCGAGCAAUAUUACGCUGA | -2.04 ± 0.12 | -1.97 ± 0.14
UCCGAGCAAUAUUACGCUUG | -3.49 ± 0.28 | -2.09 ± 0.25
UCCGAGCAAUAUUACGGACA | -2.33 ± 0.18 | -0.762 ± 0.13
UCCGAGCAAUAUUACGGGAA | -3.05 ± 0.3 | -1.65 ± 0.19
UCCGAGCAAUAUUACGGGGG | -4.27 ± 0.33 | -2.47 ± 0.22
UCCGAGCAAUAUUACGGGUA | -1.06 ± 0.13 | -0.229 ± 0.096
UCCGAGCAAUAUUACGGGUC | – | -2.45 ± 0.26
UCCGAGCAAUAUUACGGUGG | -2.76 ± 0.14 | -2.31 ± 0.2
UCCGAGCAAUAUUACGUAGU | -2.97 ± 0.16 | -2.71 ± 0.18
UCCGAGCAAUAUUACGUCCG | -2.24 ± 0.24 | –
UCCUAGCAAUAUUACGACAC | -0.225 ± 0.29 | –
UCCUAGCAAUAUUACGACCU | -3.41 ± 0.48 | -1.76 ± 0.31
UCCUAGCAAUAUUACGAUAG | -2.89 ± 0.33 | -2.14 ± 0.35
UCCUAGCAAUAUUACGAUGC | -2.85 ± 0.21 | -2.7 ± 0.29
UCCUAGCAAUAUUACGAUUG | -2.56 ± 0.24 | -2.49 ± 0.45
UCCUAGCAAUAUUACGCAGU | -3.03 ± 0.15 | -2.54 ± 0.2
UCCUAGCAAUAUUACGCGAC | -3.46 ± 0.32 | -1.49 ± 0.31
UCCUAGCAAUAUUACGCUCC | -3.73 ± 0.33 | -0.747 ± 0.24
UCCUAGCAAUAUUACGCUGA | -1.02 ± 0.11 | -0.876 ± 0.12

Sequence | self-splicing fitness (ln) (30 °C) | self-splicing fitness (ln) (37 °C)
UCCUAGCAAUAUUACGGCAA | -2.22 ± 0.2 | -1.95 ± 0.19
UCCUAGCAAUAUUACGGCCU | -2.37 ± 0.34 | -2.29 ± 0.37
UCCUAGCAAUAUUACGGCUC | – | -1.62 ± 0.44
UCCUAGCAAUAUUACGGGGA | -2.59 ± 0.24 | -1.59 ± 0.21
UCCUAGCAAUAUUACGGGGC | -3.1 ± 0.23 | -2.77 ± 0.32
UCCUAGCAAUAUUACGGGGG | -3.69 ± 0.18 | -2.59 ± 0.27
UCCUAGCAAUAUUACGGUAC | -3.79 ± 0.26 | -3.32 ± 0.47
UCCUAGCAAUAUUACGGUCG | -1.69 ± 0.14 | -1.59 ± 0.17
UCCUAGCAAUAUUACGUAGA | -2.36 ± 0.05 | -0.729 ± 0.069
UCCUAGCAAUAUUACGUAGG | -3.58 ± 0.19 | -2.21 ± 0.26
UCCUAGCAAUAUUACGUCAC | -1.97 ± 0.2 | -2.6 ± 0.27
UCCUAGCAAUAUUACGUCAG | -3.38 ± 0.29 | -2.41 ± 0.37
UCCUAGCAAUAUUACGUCCA | -3.15 ± 0.48 | -1.56 ± 0.34
UCCUAGCAAUAUUACGUGAU | -3.3 ± 0.28 | -1.9 ± 0.24
UCCUAGCAAUAUUACGUGGG | -3.24 ± 0.15 | -2.5 ± 0.2
UCCUAGCAAUAUUACGUGUA | -2.28 ± 0.18 | -1.09 ± 0.12
UCCUAGCAAUAUUACGUUAU | -2.99 ± 0.19 | -2.59 ± 0.24
UCCUAGCAAUAUUACGUUCG | -1.03 ± 0.16 | -2.28 ± 0.28
UCCUAGCAAUAUUACGUUUG | -3.11 ± 0.17 | -3.36 ± 0.26
UCGAAGCAAUAUUACGAAAG | -3.24 ± 0.23 | -2.47 ± 0.44
UCGAAGCAAUAUUACGAACA | -0.799 ± 0.12 | -0.112 ± 0.14
UCGAAGCAAUAUUACGAACG | -1.82 ± 0.13 | -0.935 ± 0.14
UCGAAGCAAUAUUACGAAGU | -4.55 ± 0.32 | -1.43 ± 0.19
